± gives the uncertainty stated by the source.
B1: POU domain, class 3, transcription factor 1, residues 247 to 324; numbered along this chain, Q03052 (parent)
chain: EDAPSSDDLEQFAKQFKQRRIKLGFTQADVGLALGTLYGNVFSQTTICRFEALQLSFKNMCKLKPLLNKWLEETDSSS

Variants of: B1
Test: abundance fitness (aPCA) (normalised: wild type 0, dead -1); higher = more abundant; growth selection in yeast, the domain comes from the species named
Conditions: Homo sapiens

Abundance fitness of substitutions, site by site:
T45: C -0.346 ± 0.1 | F -0.016 ± 0.19 | G -0.076 ± 0.039 | D 0.254 ± 0.068 | I -0.557 ± 0.32 | H -0.055 ± 0.17 | A -0.023 ± 0.051 | E 0.185 ± 0.054
L37: S -0.261 ± 0.1 | E -0.062 ± 0.06 | C 0.206 ± 0.12 | I 0.11 ± 0.15 | G -0.275 ± 0.061 | M 0.097 ± 0.072 | D -0.35 ± 0.14 | Q -0.054 ± 0.084 | V -0.198 ± 0.073 | H 0.133 ± 0.36 | W -0.251 ± 0.075 | Y 0.175 ± 0.15 | F -0.06 ± 0.098 | K 0.137 ± 0.072 | N -0.333 ± 0.19
Q44: H -0.046 ± 0.11 | I -0.472 ± 0.14 | G 0.03 ± 0.038 | N 0.01 ± 0.084 | V -0.209 ± 0.053 | S 0.025 ± 0.055 | R -0.067 ± 0.044 | A 0.119 ± 0.047 | T 0.118 ± 0.064 | W -0.55 ± 0.095 | C -0.515 ± 0.12 | L -0.502 ± 0.069 | P 0.132 ± 0.064 | D 0.195 ± 0.077 | K 0.041 ± 0.063 | M -0.262 ± 0.085 | Y -0.266 ± 0.15 | E 0.266 ± 0.05 | F -0.323 ± 0.14
Y38: Q -0.173 ± 0.094 | H -0.014 ± 0.17 | F -0.13 ± 0.12 | M -0.486 ± 0.1 | E -0.332 ± 0.084 | R -0.383 ± 0.064 | C -0.029 ± 0.085 | V -0.031 ± 0.062 | A -0.153 ± 0.072 | I 0.108 ± 0.14 | K -0.153 ± 0.092 | S -0.026 ± 0.063 | D -0.058 ± 0.12 | P -0.44 ± 0.13 | L -0.418 ± 0.08 | W -0.43 ± 0.087 | N 0.019 ± 0.12
S43: T -0.04 ± 0.062 | Y -0.389 ± 0.18 | F -1.04 ± 0.46 | C -0.485 ± 0.14 | N 0.045 ± 0.091 | R -0.329 ± 0.055 | V -0.835 ± 0.11 | D 0.17 ± 0.066 | H -0.108 ± 0.14 | M -0.63 ± 0.13 | L -0.872 ± 0.12 | K -0.234 ± 0.079 | P -0.007 ± 0.071 | A -0.378 ± 0.07 | G -0.297 ± 0.049 | W -0.371 ± 0.087
G39: C -0.523 ± 0.15 | N -0.213 ± 0.35 | M -1.04 ± 0.35 | I -0.488 ± 0.33 | L -0.751 ± 0.12 | W -0.421 ± 0.098 | H 0.144 ± 0.16 | T -0.196 ± 0.12

From the Human Domainome abundance scans (Beltran et al. 2025)
